What all share (type): biochemical, Homo sapiens
Substrate in data set [1]: O=P(O)(O)O[C@H]1O[C@H](CO)[C@@H](O)[C@H](O)[C@H]1O
The data set can be described thus: continuous assay based on PPi detection, forward reaction, Michaelis-Menten fit. The note with it: Glc1P varied 0.01-1 mM at 1 mM UTP.

Substrate in data set [2]: O=c1ccn([C@@H]2O[C@H](COP(=O)(O)OP(=O)(O)OP(=O)(O)O)[C@@H](O)[C@H]2O)c(=O)[nH]1
The description is as above. The note with it: UTP varied 0.01-0.8 mM at 2 mM Glc1P.

Substrate in data set [3]: O=P(O)(O)O[C@H]1O[C@H](CO)[C@H](O)[C@H](O)[C@H]1O
The data set can be described thus: continuous assay based on PPi detection, forward reaction, Michaelis-Menten and cooperative fits. The note with it: Gal1P varied 0.01-2 mM at 1 mM UTP.

B1: HsUGP (Homo sapiens) (protein)
chain: MSRFVQDLSKAMSQDGASQFQEVIRQELELSVKKELEKILTTASSHEFEHTKKDLDGFRKLFHRFLQEKGPSVDWGKIQRPPEDSIQPYEKIKARGLPDNISSVLNKLVVVKLNGGLGTSMGCKGPKSLIGVRNENTFLDLTVQQIEHLNKTYNTDVPLVLMNSFNTDEDTKKILQKYNHCRVKIYTFNQSRYPRINKESLLPVAKDVSYSGENTEAWYPPGHGDIYASFYNSGLLDTFIGEGKEYIFVSNIDNLGATVDLYILNHLMNPPNGKRCEFVMEVTNKTRADVKGGTLTQYEGKLRLVEIAQVPKAHVDEFKSVSKFKIFNTNNLWISLAAVKRLQEQNAIDMEIIVNAKTLDGGLNVIQLETAVGAAIKSFENSLGINVPRSRFLPVKTTSDLLLVMSNLYSLNAGSLTMSEKREFPTVPLVKLGSSFTKVQDYLRRFESIPDMLELDHLTVSGDVTFGKNVSLKGTVIIIANHGDRIDIPPGAVLENKIVSGNLRILDH
notes: octameric
In the case of B1, the Km in data set [1] was determined as 34.2 ± 1.99 µM; in data set [2], 76.29 ± 3.96 µM; in data set [3], 842.0 ± 72.8 µM.

B2: HsUGP (Homo sapiens; G116D) (protein)
chain: MSRFVQDLSKAMSQDGASQFQEVIRQELELSVKKELEKILTTASSHEFEHTKKDLDGFRKLFHRFLQEKGPSVDWGKIQRPPEDSIQPYEKIKARGLPDNISSVLNKLVVVKLNGDLGTSMGCKGPKSLIGVRNENTFLDLTVQQIEHLNKTYNTDVPLVLMNSFNTDEDTKKILQKYNHCRVKIYTFNQSRYPRINKESLLPVAKDVSYSGENTEAWYPPGHGDIYASFYNSGLLDTFIGEGKEYIFVSNIDNLGATVDLYILNHLMNPPNGKRCEFVMEVTNKTRADVKGGTLTQYEGKLRLVEIAQVPKAHVDEFKSVSKFKIFNTNNLWISLAAVKRLQEQNAIDMEIIVNAKTLDGGLNVIQLETAVGAAIKSFENSLGINVPRSRFLPVKTTSDLLLVMSNLYSLNAGSLTMSEKREFPTVPLVKLGSSFTKVQDYLRRFESIPDMLELDHLTVSGDVTFGKNVSLKGTVIIIANHGDRIDIPPGAVLENKIVSGNLRILDH
notes: octameric
B2: the results for the Km in data set [1] and in data set [2] were 53.97 ± 4.11 µM and 79.50 ± 4.93 µM, respectively.

The record behind these values is article PMC7139386, “Defects in Galactose Metabolism and Glycoconjugate Biosynthesis in a UDP-Glucose Pyrophosphorylase-Deficient Cell Line Are Reversed by Adding Galactose to the Growth Medium” (International Journal of Molecular Sciences, 2020).
